Test results taken from patent US20240101687A1 (ABL BIO, published 2024).
Where a chain is given by its changes, count along the chain named. Names and notes keep the numbering of the source. Values joined by “and” are separate entries in the source; they are usually repeats but may differ in a detail not shown here. Equal values may be shown once. Values belong to the binder of their own block, whether it stands above or below them.

Legend:
[1] = target: T1, human IGF1R extracellular domain, His-tagged (human, UniProt P08069 31-932); test: ELISA, hIGF1R coated, minibody titrated 0.000256-20 nM, Abs. at 450 nm
T1 construct: Bought (R&D Systems 391-GR or Sino Biological 10164-H08H); also called recombinant IGF1R; ECD of IGF1R
Method: Human IGF1R was diluted with 1 ug/ml in PBS buffer, added at an amount of 100 ul per well in 96-well ELISA plate (Nunc-Immuno Plates, NUNC, Rochester, NY), coated by reacting at 4° C. for 16 hours, and then the supernatant was removed. PBS buffer containing 3% BSA (bovine serum albumin) was added to 200 ul per well and reacted for 2 hours to block non-specific binding.
After treatment, it was wash 4 times with PBS buffer containing 0.05% Tween20, and was reacted at room temperature for an hour by adding 100 ul of the anti-human HRP recognizing human Fe of the minibody diluted in blocking buffer at 1:5000 per each well. After washing 4 times with 300 ul of PBS-T (Tween20 0.05%), the color development was performed using TMB (Tetramethylbenzidine, Sigma, T0440).

[2] = target: T1, human IGF1R extracellular domain, …; test: ELISA on IGF1R protein, first experiment
[3] = target: T1, human IGF1R extracellular domain, …; test: ELISA on IGF1R protein, second experiment
[4] = target: T1, human IGF1R extracellular domain, …; test: ELISA on IGF1R protein, third experiment
[5] = target: T1, human IGF1R extracellular domain, …; test: SPR (Biacore T200), His-tagged human IGF1R ECD captured by anti-His antibody on CM4 chip, bivalent model; F06 IgG
Method: The anti-his antibody against the His tag bound to the human IGF1R ECD as an antigen was diluted to 20 μg/ml in acetate pH4.0 buffer, and then immobilized in the reference/analytic channel of the CM4 chip to 10,000 RU as a target RU according to the amine coupling method. During capture, PBS was used as a running buffer, and the flow rate was maintained at 30 μL/min. During association/dissociation, the flow rate was 40 μL/min, and PBS was used as the running buffer. The association/dissociation was 5 minutes and 20 minutes, respectively.

Tau protein aggregates = target: T2, Tau protein aggregates (UniProt P10636-8 1-441, limits assumed); test: dot blot
T2 construct: aggregates prepared by Prof; Seung-jae Lee; also called tau-derived aggregates
T2 sequence (P10636 other isoform, or with tags, fused parts or gaps limits assumed): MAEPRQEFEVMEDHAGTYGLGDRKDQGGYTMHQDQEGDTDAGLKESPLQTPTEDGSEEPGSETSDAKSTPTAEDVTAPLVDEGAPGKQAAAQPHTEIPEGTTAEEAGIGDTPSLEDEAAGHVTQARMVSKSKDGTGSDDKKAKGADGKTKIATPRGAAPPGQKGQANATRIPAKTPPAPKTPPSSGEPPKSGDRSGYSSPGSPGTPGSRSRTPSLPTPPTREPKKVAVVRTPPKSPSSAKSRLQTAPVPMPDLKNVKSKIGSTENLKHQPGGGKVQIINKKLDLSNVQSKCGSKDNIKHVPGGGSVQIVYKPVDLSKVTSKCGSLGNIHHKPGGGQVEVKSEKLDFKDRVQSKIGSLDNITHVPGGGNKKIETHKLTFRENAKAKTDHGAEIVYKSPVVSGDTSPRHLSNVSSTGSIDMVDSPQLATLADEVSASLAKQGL

human gamma-synuclein = target: T3, human gamma-synuclein (human, UniProt O76070 1-127, limits assumed); test: ELISA, human gamma-synuclein coated at 100 ng/ml
T3 construct: bought
T3 sequence (O76070 whole entry): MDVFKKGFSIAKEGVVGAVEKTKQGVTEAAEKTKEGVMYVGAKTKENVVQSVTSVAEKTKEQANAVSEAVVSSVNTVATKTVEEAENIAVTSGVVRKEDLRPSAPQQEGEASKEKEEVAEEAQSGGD
From the text: (§1) For the positive control, RP-bound goat anti-rabbit was used as a detection antibody.

Aβ42 (Monomer) = target: T4, Aβ42 (Monomer) (human, UniProt P05067); test: dot blot, monomer and fibril of each protein spotted in rising amounts, antibody as probe
T4 construct: recombinant, monomer (not aggregated); m20 is the aggregated form; also called amyloid beta1-42 monomer
Method: (§2) The specific binding ability of the antibodies to the alpha-synuclein aggregate was analyzed by reacting with a blot.

[6] = target: T5, amyloid beta1-42 aggregates (UniProt P05067 672-713); test: as above
T5 construct: domain: amyloid beta1-42; aggregates prepared by Prof; Seung-jae Lee; also called amyloid beta1-42-derived aggregates
Method: as §2

human beta-synuclein = target: T6, human beta-synuclein (human, UniProt Q16143 1-134, limits assumed); test: ELISA, human beta-synuclein coated at 100 ng/ml
T6 construct: bought
T6 sequence (Q16143 whole entry): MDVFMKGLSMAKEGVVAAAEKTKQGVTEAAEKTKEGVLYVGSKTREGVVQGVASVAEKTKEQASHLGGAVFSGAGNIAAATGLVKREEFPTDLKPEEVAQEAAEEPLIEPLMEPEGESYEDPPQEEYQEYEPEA
From the text: as §1

[7] = target: human alpha-synuclein monomer (human, UniProt P37840 1-140); test: SPR (BIAcore), antibody captured on Protein A chip, alpha-Syn monomer as analyte, 1:1 binding fit to a flat sensorgram, 25 C
[8] = target: T7, human alpha-synuclein aggregates (fibrils) (human, UniProt P37840 1-140); test: SPR (BIAcore), antibody captured on Protein A chip, alpha-Syn fibril as analyte, 1:1 binding fit, 25 C
[9] = target: T7, human alpha-synuclein aggregates …; test: SPR (BIAcore), fibrils; table of results
Method: (§3) The running buffer, analyte dilution, and the sample dilution buffer were HBS-EP. […] For the capture, the monomer was for RU of 800 (theoretical), and a fibril was for RU of 100 (theoretical). The capture phase was performed at contact time of 60 seconds, a flow rate of 30 μl/min, and a stabilization period of 180 seconds. The association phase was performed at the association time of 120 seconds and the flow rate was 30 μl/min. The dissociation phase was performed at the dissociation time of 360 seconds and the flow rate of 30 l/min. The regeneration phase was performed twice time at the regeneration time of 240 seconds (primary) and 60 seconds (secondary) and a flow rate of 30 μl/min. The fitting was carried out suing 1:1 binding model, and the evaluation software was BIACore T200 Evaluation software (GE healthcare).

[10] = target: T7, human alpha-synuclein aggregates …; test: Octet (BLI), fibrils; table of results
Method: The target concentrations were 20 μg/ml for the monomer and 0.4 μg/ml for the fibril. The kinetics concentration was diluted sequentially two times from 50 nM for monomers and from 100 nM for fibrils, to give 7 points in total, respectively. Association/dissociation time was 5 min/20 min for monomer and 5 min/25 min for fibril. Biosensor was ARG2 and fitting was performed using 1:1 fitting model.

[11] = target: T7, human alpha-synuclein aggregates …; test: sandwich ELISA, antibody coated at 1 ug/ml, alpha-synuclein fibril aggregates titrated
Method: ELISA analysis was performed to quantitatively analyze the binding affinity of the antibody of the present invention to the antigen. […] After washing with PBS, streptavidin conjugated with HRP and secondary antibody conjugate with biotin was treated and then reacted with TMB as a substrate.

[12] = target: T7, human alpha-synuclein aggregates …; test: sandwich ELISA, antibody coated in a dilution series, synuclein fibril aggregates at 2000 ng/ml; C of the 4-P fit, which paragraph 260 calls EC50
Method: Specifically, each antibody was diluted at 1/10 ratio of concentrations 0.04 to 400 nM and was coated on a 96-well plate, and then each well was treated with synuclein fibril aggregates were treated at 2000 ng/ml. After washing with 1×PBS, streptavidin conjugated with HRP and secondary antibody conjugate with biotin was treated and then reacted with TMB as a substrate. The absorbance was measured.

[13] = target: T7, human alpha-synuclein aggregates …; test: SPR (BIAcore), antibody captured on Protein A chip, alpha-synuclein fibril (sample aSyn180330) as analyte, 1:1 binding fit, 25 C
Method: as §3

human IGF1R on cells = target: T8, human IGF1R on cells (human, UniProt P08069 31-1367); test: FACS on MCF-7 cells, 10 ug/mL (2nd Ab only: 2.86)
T8 construct: also called endogenous IGF1R on the cell surface (MCF-7, JIMT-1, BT474, SKBR3); IGF1R library on OVCAR3 cells
Method: After washing with PBS buffer containing 1% BSA, the secondary antibody bound with FITC to detect human antibodies was treated for 1 hour.

[14] = target: T7, human alpha-synuclein aggregates …; test: BIAcore as in Example 4-3, α-syn aggregates
Method: as §3

B1: 996 minibody (Fc fusion, not shown: a dimerising Fc or GST)
chain: QSVLTQPPSASGTPGQRVTISCTGSSSNIGSNAVNWYQQLPGTAPKLLIYSNSHRPSGVPDRFSGSKSGTSASLAISGLRSEDEADYYCATWDYSLSGYVFGCGTKLTVLGGGGSGGGGSGGGGSGGGGSEVQLLESGGGLVQTGGSLRLSCAASGFTFSSYDMSWVRQAPGKCLEWVSGIYHDGSSTYYADSVQGRFTISRDNSKNTLYLQMNSLRAEDTAVYYCARVSGTLSEPYAFFFNAMDVWGQGTLVTVSS
EC50 (read off the curve) [1]: ~0.3 nM

B2: 1564 clone (anti-IGF1R antibody, format not stated) (antibody, V domains shown)
VH: EVQLLESGGGLVQPGGSLRLSCAASGFTFSSYDMSWVRQAPGKGLEWVSAISYDNGNTYYADSVKGRFTISRDNSKNTLYLQMNSLRAEDTAVYYCAKGVLTTLMNWFDYWGQGTLVTVSS
VL: QSVLTQPPSASGTPGQRVTISCTGSSSNIGSNDVSWYQQLPGTAPKLLIYANSNRPSGVPDRFSGSKSGTSASLAISGLRSEDEADYYCGAWDDSLNGYVFGGGTKLTVL
EC50 [2]: 2.15 nM
Saturation value [2]: 1.1
EC50 [3]: 2.66 nM
Saturation value [3]: 0.977
EC50 [4]: 6.87 nM

B3: F06 IgG antibody (antibody, V domains shown)
VH: B2 VH
VL: B2 VL with A91T, D93A, D94G
Kd [5]: 478 nM

B4: 1564-VH(N54D) (antibody, V domains shown)
VH: B2 VH with N55D
VL: B2 VL
EC50 [3]: 2.89 nM
Saturation value [3]: 0.933

B7: 1564-VH(N54Q) (antibody, V domains shown)
VH: B2 VH with N55Q
VL: B2 VL
EC50 [3]: 2.2 nM
Saturation value [3]: 0.885

B11: 3A9 (mouse monoclonal anti-alpha-synuclein antibody) (antibody, mouse IgG2b, V domains shown)
VH: EVQLQESGGGLVKPGGSLKLSCAASGFTFSSYAMSWVRQTPEKRLEWVATISNGGGYTYYPDSVKGRFTISRDNAKNTLYLQMSSLRSEDTAMYYCARHITTVRPTKYFDYWGQGTTLTVSS
VL: DIVMTQSPKFMSTSVGDRVSITCKASQNVGTTVAWYQQKPGQSPKLLIYSASNRYTGVPDRFTGSGSGTDFTLTISNMQSEDLADYFCQQYSNYPLTFGAGTKLELR
Kd [9]: 1.32 nM
Kd [10]: 0.13 nM
EC50 [11]: 0.319 µg/mL and 2.13 nM

B12: 11F11 (mouse monoclonal anti-alpha-synuclein antibody) (antibody, mouse IgG2b, V domains shown)
VH: EVQLQESGGGLVQPGGSLRLSCATSGFTFSDFYMEWVRQPPGKRLEWIAASRNKANDYTTEYSASVKGRFIVSRDTSQSILYLQMNALRAEDTAIYYCARDAHGKPFAYWGQGTLVTVSA
VL: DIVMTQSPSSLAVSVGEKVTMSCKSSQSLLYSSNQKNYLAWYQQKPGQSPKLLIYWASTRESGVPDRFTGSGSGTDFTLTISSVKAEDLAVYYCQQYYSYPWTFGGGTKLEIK
Kd [9]: 2.87 nM
Kd [10]: 0.16 nM
EC50 [11]: 0.327 µg/mL and 2.18 nM

B13: hu11F11(ver.1) (antibody, human IgG1, kappa, V domains shown)
VH: B12 VH with Q5V, I71T, V72I, T76D, Q78K, I80S, A87S, L115T, A120S
VL: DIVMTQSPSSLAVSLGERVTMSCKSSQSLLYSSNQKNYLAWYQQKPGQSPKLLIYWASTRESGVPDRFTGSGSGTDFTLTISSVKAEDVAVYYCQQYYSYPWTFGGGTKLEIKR
notes: humanized IgG1; also called Hu11F11-VH-v1 + Hu11F11-VLv3 4c
EC50 [12]: 11.5 nM
koff [13]: 5.36e-05 s⁻¹
kon [13]: 845000 M⁻¹ s⁻¹

B18: 9B11 (mouse monoclonal anti-alpha-synuclein antibody) (antibody, V domains shown)
VH: EVQLQESGGGLVQPKGSLKLSCAASGFTFNTYAMNWVRQAPGKGLEWVARIRSKSNNYATYYADSVKDRFTISRDDSQSMLYLQMNNLKTEDTAMYYCVRQDFDYWGQGTTLTVSS
VL: DIVMTQSPLSLPVSLGDQASISCRSSQSLVHSNGNTYLHWYLQKPGQSPKLLIYKVSNRFSGVPDRFSGSGSGTDFTLKISRVEAEDLGVYFCSQSTHVPLTFGAGTKLEQK
Kd [9]: 0.904 nM
Kd [10]: 0.018 nM
EC50 [11]: 0.185 µg/mL and 1.23 nM

More lines, now with the values ahead:

EC50 [3]: 2.07 nM
Saturation value [3]: 0.896
B5: 1564-VL(N95aD) (antibody, V domains shown)
VH: B2 VH
VL: B2 VL with P60S, N97D

EC50 [4]: 7.35 nM
B6: 1564-VL(N51D) (antibody, V domains shown)
VH: B2 VH
VL: B2 VL with N52D, P60S

EC50 [2]: 2.63 nM
Saturation value [2]: 1.08
B8: 1564-VL(N95aH) (antibody, V domains shown)
VH: B2 VH
VL: B2 VL with P60S, N97H

EC50 [2]: 2.07 nM
Saturation value [2]: 1.18
B9: 1564-VL(N95aK) (antibody, V domains shown)
VH: B2 VH
VL: B2 VL with P60S, N97K

binding result (Tau protein aggregates): no binding
binding result (human gamma-synuclein): no binding
binding result (Aβ42 (Monomer)): no binding
binding result [6]: no binding
binding result (human beta-synuclein): no binding
koff [7]: 0.00186 s⁻¹
koff [8]: 7.42e-05 s⁻¹
kon [8]: 631000 M⁻¹ s⁻¹
B10: chimeric 3A9 antibody (antibody, V domains shown)
VH: B11 VH
VL: B11 VL
notes: also called Ch 3A9; ch3A9

EC50 [12]: 15.1 nM
koff [13]: 0.000173 s⁻¹
kon [13]: 1.19e+06 M⁻¹ s⁻¹
GeoMean, Internalization at 37° C. (human IGF1R on cells): 3.18
Kd [14]: 0.0596 nM
B14: hu11F11(ver.2) (antibody, human IgG1, kappa, V domains shown)
VH: B12 VH with Q5V, I71T, T76D, Q78K, I80S, A87S, L115T, A120S
VL: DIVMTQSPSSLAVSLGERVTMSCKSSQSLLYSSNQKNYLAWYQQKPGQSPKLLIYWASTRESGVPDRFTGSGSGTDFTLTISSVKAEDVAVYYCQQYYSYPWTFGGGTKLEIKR
notes: humanized IgG1; also called Hu11F11-VH-v2 + Hu11F11-VLv3 4c

EC50 [12]: 12.9 nM
koff [13]: 0.000291 s⁻¹
kon [13]: 1.07e+06 M⁻¹ s⁻¹
Kd [14]: 0.0204 nM
B15: hu11F11(ver.4) (antibody, human IgG1, kappa, V domains shown)
VH: B12 VH with Q5V, I71T, Q78K, I80S, A87S, L115T, A120S
VL: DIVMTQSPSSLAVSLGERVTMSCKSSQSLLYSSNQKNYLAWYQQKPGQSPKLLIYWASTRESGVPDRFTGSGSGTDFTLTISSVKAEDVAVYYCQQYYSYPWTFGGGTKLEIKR
notes: humanized IgG1; also called Hu11F11-VH-v4 + Hu11F11-VLv3 4c

EC50 [12]: 13.4 nM
kon [13]: 1.07e+06 M⁻¹ s⁻¹
Kd [14]: 0.0316 nM
B16: hu11F11(ver.3) (antibody, human IgG1, kappa, V domains shown)
VH: B12 VH with Q5V, I71T, V72I, Q78K, I80S, A87S, L115T, A120S
VL: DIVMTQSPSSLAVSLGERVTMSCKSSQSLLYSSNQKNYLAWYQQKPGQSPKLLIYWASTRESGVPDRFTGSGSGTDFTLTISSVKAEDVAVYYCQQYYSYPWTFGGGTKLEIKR
notes: humanized IgG1; also called Hu11F11-VH-v3 + Hu11F11-VLv3 4c

binding result (Tau protein aggregates): no binding
binding result (human gamma-synuclein): no binding
binding result (Aβ42 (Monomer)): no binding
binding result [6]: no binding
binding result (human beta-synuclein): no binding
koff [7]: 0.000571 s⁻¹
kon [7]: 2210 M⁻¹ s⁻¹
koff [8]: 4.39e-05 s⁻¹
kon [8]: 629000 M⁻¹ s⁻¹
B17: chimeric 9B11 antibody (antibody, V domains shown)
VH: B18 VH
VL: B18 VL
notes: also called ch9B11; 9B11 (chimeric)
